Source: patent US20080021198

Molecular target: PP2A A-C hetero-dimer (bovine brain, unmethylated) (UniProt Q32PI5)
Sequence (Q32PI5 2-589, chain 1 of 2): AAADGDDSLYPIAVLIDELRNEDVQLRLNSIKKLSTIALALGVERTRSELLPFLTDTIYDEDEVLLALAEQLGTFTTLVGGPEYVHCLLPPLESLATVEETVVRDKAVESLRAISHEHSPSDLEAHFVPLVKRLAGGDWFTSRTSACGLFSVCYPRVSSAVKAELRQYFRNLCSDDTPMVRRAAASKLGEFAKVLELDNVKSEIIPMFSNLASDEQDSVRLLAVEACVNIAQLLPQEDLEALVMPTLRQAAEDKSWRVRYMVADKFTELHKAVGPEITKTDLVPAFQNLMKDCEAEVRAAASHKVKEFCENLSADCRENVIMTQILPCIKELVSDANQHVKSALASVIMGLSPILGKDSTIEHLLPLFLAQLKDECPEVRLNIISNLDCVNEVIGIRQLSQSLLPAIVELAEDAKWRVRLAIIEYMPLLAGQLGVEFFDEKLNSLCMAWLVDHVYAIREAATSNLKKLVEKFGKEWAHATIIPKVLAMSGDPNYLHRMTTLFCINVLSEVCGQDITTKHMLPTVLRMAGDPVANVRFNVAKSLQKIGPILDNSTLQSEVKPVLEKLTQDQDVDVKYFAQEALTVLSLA
Sequence (chain, as listed by the source, chain 2 of 2): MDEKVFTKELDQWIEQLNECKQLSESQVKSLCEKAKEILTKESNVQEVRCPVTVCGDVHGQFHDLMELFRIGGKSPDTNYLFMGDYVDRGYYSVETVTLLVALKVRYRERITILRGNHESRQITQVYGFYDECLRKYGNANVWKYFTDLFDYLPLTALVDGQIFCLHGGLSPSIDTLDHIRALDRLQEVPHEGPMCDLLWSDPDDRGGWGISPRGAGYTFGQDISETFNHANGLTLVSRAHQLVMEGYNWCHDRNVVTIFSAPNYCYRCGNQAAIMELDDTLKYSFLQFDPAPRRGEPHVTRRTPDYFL

PMTΔ19 (human PP2A methyl transferase with the N-terminal 19 residues truncated)
enzyme activity (in vitro enzymatic assay, FIG. 7): Truncation of the N-terminal 19 amino acids did not appear to have any effect on the enzyme activity
